In test [1] the target is T1, human GPRC5D (human, UniProt Q9NZD1 1-345).
T1 construct: whole, on cells; also called hGPRC5D; G-protein coupled receptor family C group 5 member D
Briefly: flow cytometry, KHM-1B cells. As for the experimental part:
Human multiple myeloma cell line KHM-1B cells (JCRB Cell Bank) expressing GPRC5D were adjusted to a concentration of 5×10⁶ cells/mL with PBS containing 5% FBS, inoculated in an amount of 100 μL/well to a 96-well U-bottomed microplate, and centrifuged to remove a supernatant. Each rat anti-GPRC5D antibody (2A4, 2B1, and 7B4) adjusted to 0.32 ng/mL to 10 μg/mL in Example 1)-7 was added thereto in an amount of 100 μL/well, and the plate was left standing at 4° C. for 1 hour. The cells were washed twice with PBS containing 5% FBS. Then, PE Goat Anti-Rat Ab (Becton, Dickinson and Company) diluted 100-fold with PBS containing 5% FBS was added thereto at a concentration of 100 μL/well, and the plate was left standing at 4° C. for 1 hour. The cells were washed twice with PBS containing 5% FBS and then resuspended in PBS containing 5% FBS, followed by detection using a flow cytometer (FACSCanto™ II; Becton, Dickinson and Company). The data was analyzed using Flowjo (Tree Star, Inc.). The PE fluorescence intensity of the cell fraction was plotted to a histogram, and the mean fluorescence intensity (MFI) was calculated.
(In flow cytometry, cells or beads pass a laser one at a time.)

The target in test [2] is T1, human GPRC5D. Briefly: flow cytometry, KMS-34 cells.
In test [3] the target is T2, human GPRC5D amino-terminal peptide …(Biotin)-NH2, lacking an intramolecular disulfide bond (human, biotinylated carboxy terminus, C-terminal amide; no intramolecularly formed disulfide bond).
T2 construct: Sigma-Aldrich synthetic peptide; also called amino-terminal peptide of human GPRC5D (disulfide bond absent)
T2 peptide: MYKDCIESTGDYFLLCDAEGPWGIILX
Briefly: ELISA, immobilised biotinylated peptide. The text has this:
(§1) Epitopes bound by the obtained rat anti-GPRC5D antibodies (2A4, 2B1, and 7B4) were identified using a human GPRC5D amino-terminal peptide […](Biotin)-NH₂ (Sigma-Aldrich Corp.) (SEQ ID NO: 1 of the Sequence Listing; FIG. 2) having a biotinylated carboxy-terminal peptide and lacking an intramolecularly formed disulfide bond, and a human GPRC5D amino-terminal peptide […]-K(Biotin)-NH₂ (Peptide Institute, Inc.) (SEQ ID NO: 2 of the Sequence Listing; FIG. 3) having a lysine-containing biotinylated carboxy terminus and having an intramolecularly formed disulfide bond. Each peptide diluted with PBS was added to Nunc Immobilizer (Thermo Fisher Scientific Inc.), and the plate was left standing at room temperature for 1 hour. After washing three times with PBST, […] containing 1% BSA was added thereto, and the plate was left standing at room temperature for 1 hour. After washing three times with PBST, each rat anti-GPRC5D antibody (2A4, 2B1, and 7B4) prepared in Example 1)-7 and diluted to 0.1 ng/mL to 1 μg/mL with PBS was added thereto, and the plate was left standing at room temperature for 1 hour. After washing three times with PBST, Anti-Rat IgG, HRP-Linked Whole Ab Goat (GE Healthcare Bio-Sciences Corp.) diluted 500-fold with PBS was added thereto, and the plate was left standing at room temperature for 1 hour. After washing three times with PBST, SuperSignal™ ELISA Pico Chemiluminescent Substrate (Thermo Fisher Scientific Inc.) was added thereto, and the luminescence was measured using a plate reader (ENVISION; PerkinElmer, Inc.).
(An ELISA detects its analyte on a solid surface through an enzyme-linked reagent.)

In test [4] the target is T3, human GPRC5D amino-terminal peptide MYKDCIESTGDYFLLCDAEGPWGIILE-K(Biotin)-NH2, having an intramolecular … (human, C-terminal lysine carrying biotin, C-terminal amide; intramolecularly formed disulfide bond).
T3 construct: Peptide Institute synthetic peptide; also called amino-terminal peptide of biotinylated human GPRC5D (disulfide bond present)
T3 peptide: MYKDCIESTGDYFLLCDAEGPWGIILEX
In words: ELISA, immobilised biotinylated peptide.
Source text: as §1

B1: rat anti-GPRC5D antibody 7B4 (antibody, V domains shown)
VH: EIHLQESGPGLVKPSQSLSLTCSVTGYTITSGYDWSWIRKFPGNKMEWMAYMSYRGSTNYNPSLKSRISITRDTSKNQFFLQLNSVTTEDTATYYCALTRTYWYNYYYVLDAWGQGASVTVSS
VL: DIQMTQSPSFLSASVGERVTLSCKASQNINKYLDWYQQKLGEPPKLLIYNTNNLHTGIPSRFSGSGSGTDYTLTISGLQPEDVATYFCLQRNSWYTFGAGTKLELK
notes: Rat IgG2b, kappa chain
The term Kd denotes the free concentration of one partner at which half of the binding sites on the other are occupied at equilibrium, for simple one-to-one binding. A lower Kd goes with a tighter complex. For B1, the results for the Kd with human GPRC5D [1] and with human GPRC5D [2] were 1.3 nM and 2.1 nM, respectively. The “MFI (max)” value was 2490 with human GPRC5D [1] and 4470 in the test with human GPRC5D [2]. In addition, the binding result in test [3] and in test [4] was “no binding (tested: 0.1 ng/mL to 1 µg/mL)” in each case.

B2: rat anti-GPRC5D antibody 2A4 (antibody, V domains shown)
VH: QVQLQQSGAELAKPGTSVKLSCKASGYTFTSYYIYWVKQRPGQGLEWIGYVYPGYGGTYYSDKFKGKATFTADTSSSTAYMLLGSLTPEDSAYYFCARRKGIIRGPGYFDYWGQGVMVTVSS
VL: DIQMTQSPASLSASLGETVSIECLASEGISNSLAWYQQKPGKSPQLLIYGASSLQDGVPSRFSGSGSGTQYSLKISGMQPEDEGLYYCQQGYKYPPTFGGGTKLELK
notes: Rat IgG2b, kappa chain
For B2, the Kd was 0.5 nM in the test with human GPRC5D [1] and 1.4 nM with human GPRC5D [2]. The “MFI (max)” value with human GPRC5D [1] worked out at 1150; in the test with human GPRC5D [2], 2060. The binding result in test [3] and in test [4] was “no binding (tested: 0.1 ng/mL to 1 µg/mL)” in each case.
